{
  "source": "paper PMC5203670",
  "about": "“Biosynthesis of selenate reductase in Salmonella enterica: critical roles for the signal peptide and DmsD” (Microbiology, 2016)",
  "molecules": {"B1": {"name": "Recombinant S. enterica DmsD, purified, hexa-histidine tag removed (natural protein, Salmonella enterica serovar Typhimurium, UniProt Q8ZPK0 1-204, looked up)", "chain": "MTTFLQRDDFAVTARVLGALFYYSPESHETAPLVQALLNDDWQAQWPLDAEALAPVAAMFKTHSEESLPQAWQRLFIGPYALPSPPWGSVWLDRESVLFGDSTLALRQWMRENGIQFEMQQNEPEDHFGSLLLLAAWLAENDRHHECEQLLAWHLFPWSSRFLDVFIDHAGHPFYQALGQLARLTLAQWQAQLIIPVAVKPLFR", "notes": "DmsD of S. enterica serovar Typhimurium, 204 residues; The forward primer encodes ENLYFQG before the first methionine; also called purified DmsD; pQE-His-TEV-DmsDst; not shown: His6, N-terminal, cleaved"}},
  "key": {"[1]": {"target": "T25-DmsD fusion protein (S. enterica DmsD attached to the C-terminus of T25) (Salmonella enterica serovar Typhimurium) (UniProt Q8ZPK0)", "assay": "two-hybrid; bacterial adenylate cyclase two-hybrid (spYnfE-T18 and T25-DmsD) in E. coli MAE01 (ΔcyaA); cultures at 30 °C, β-galactosidase activity in Miller units, shown relative to the native pair"}, "[2]": {"target": "T25-DmsD fusion protein (S. enterica DmsD attached to the C-terminus of T25) (Salmonella enterica serovar Typhimurium) (UniProt Q8ZPK0)", "assay": "two-hybrid; bacterial adenylate cyclase two-hybrid (spYnfE-T18 and T25-DmsD) in E. coli MAE01 (ΔcyaA); cultures at 30 °C, β-galactosidase activity in Miller units, shown relative to the native pair", "remark": "listed apart in the source"}, "[3]": {"target": "YnfE signal peptide (Salmonella enterica)", "sequence (P77374 1-43)": "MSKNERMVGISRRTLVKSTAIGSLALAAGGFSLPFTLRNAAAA", "details": "cited from earlier work"}, "[4]": {"target": "the molecule itself", "assay": "cross-linking; 1 % (v/v) formaldehyde, purified DmsD (2 µM) with or without synthetic peptide 2 (100 µM), 30 min, 50 mM HEPES pH 7.6, 150 mM KCl; SDS-PAGE and anti-DmsD immunoblot"}},
  "note": "Like-named read-outs stand apart in the source and are kept apart here.",
  "data": [
    {"molecule": "spYnfE-T18 fusion (42-residue YnfE Tat signal peptide at the N-terminus of T18) (domain or fragment)", "values": [
      {"measurement": "β-galactosidase activity (positive control, 100 %)", "setting": "[1]", "result": 1650, "unit": "Miller units"},
      {"measurement": "β-galactosidase activity (positive control, 100 %)", "setting": "[2]", "result": 1720, "unit": "Miller units"}
    ]},
    {"molecule": "DmsD (from UniProt Q8ZPK0)", "values": [
      {"measurement": "Kd", "setting": "[3]", "result": 45, "unit": "nM"}
    ]},
    {"molecule": "B1", "values": [
      {"measurement": "stoichiometry N", "setting": "[4]", "result": 2}
    ]}
  ]
}
